A short description of this data set: total protein half-life in vivo (active degradation + dilution); higher = more stable protein.
[1] abbreviates: E. coli NCM3722 delta-clpP delta-lon delta-hslV, growth: N-lim chemostat, doubling time 6 h.
Where [2] appears, read: E. coli NCM3722 delta-clpP, growth: N-lim chemostat, doubling time 6 h.
Where [3] appears, read: E. coli NCM3722 delta-hslV, growth: N-lim chemostat, doubling time 6 h.
The mark [4] stands for this setting: E. coli NCM3722 delta-lon, growth: N-lim chemostat, doubling time 6 h.
Where [5] appears, read: E. coli NCM3722 delta-smpB, growth: N-lim chemostat, doubling time 6 h.
Where [6] appears, read: wild type E. coli NCM3722, growth: C-lim chemostat, doubling time 3 h.
Setting [7] is: wild type E. coli NCM3722, growth: C-lim chemostat, doubling time 6 h.
[8] abbreviates: wild type E. coli NCM3722, growth: C-lim chemostat, doubling time 12 h.
Setting [9] is: wild type E. coli NCM3722, growth: N-lim chemostat, doubling time 6 h.
[10] abbreviates: wild type E. coli NCM3722, growth: N-lim chemostat, doubling time 12 h.
Where [11] appears, read: wild type E. coli NCM3722, growth: P-lim chemostat, doubling time 6 h.
Where [12] appears, read: wild type E. coli NCM3722, growth: P-lim chemostat, doubling time 12 h.

± gives the standard deviation of the averaged measurements.

Take “MIEKLRNIAIIAHVDHGKTTLVDKLLQQSGTFDSRAETQERVMDSNDLEKERGITILAKNTAIKWNDYRINIVDTPGHADFGGEVERVMSMVDSVLLVVDAFDGPMPQTRFVTKKAFAYGLKPIVVINKVDRPGARPDWVVDQVFDLFVNLDATDEQLDFPIVYASALNGIAGLDHEDMAEDMTPLYQAIVDHVPAPDVDLDGPFQMQISQLDYNSYVGVIGIGRIKRGKVKPNQQVTIIDSEGKTRNAKVGKVLGHLGLERIETDLAEAGDIVAITGLGELNISDTVCDTQNVEALPALSVDEPTVSMFFCVNTSPFCGKEGKFVTSRQILDRLNKELVHNVALRVEETEDADAFRVSGRGELHLSVLIENMRREGFELAVSRPKVIFREIDGRKQEPYENVTLDVEEQHQGSVMQALGERKGDLKNMNPDGKGRVRLDYVIPSRGLIGFRSEFMTMTSGTGLLYSTFSHYDDVRPGEVGQRQNGVLISNGQGKAVAFALFGLQDRGKLFLGHGAEVYEGQIIGIHSRSNDLTVNCLTGKKLTNMRASGTDEAVVLVPPIRMTLEQALEFIDDDELVEVTPTSIRIRKRHLTENDRRRANRAPKDD”: the “total protein half-life in vivo” value runs as follows: under setting [1], 5.32 ± 0.47 h; under setting [2], 4.79 ± 0.39 h; under setting [3], 4.54 ± 0.41 h; under setting [4], 5.61 ± 0.38 h; under setting [5], 4.62 ± 0.21 h; under setting [6], 2.899 ± 0.022 h. Further, the “total protein half-life in vivo” value under setting [7] was 5.8018 ± 0.005 h; the “total protein half-life in vivo” value under setting [8] was 9.75 ± 0.82 h; the “total protein half-life in vivo” value under setting [9] came out at 4.387 ± 0.029 h; the “total protein half-life in vivo” value under setting [10] amounted to 6.89 ± 0.16 h; the “total protein half-life in vivo” value under setting [11] was determined as 5.58 ± 0.15 h; the “total protein half-life in vivo” value under setting [12] was determined as 10.9 ± 0.83 h.
Take “MSEQNNTEMTFQIQRIYTKDISFEAPNAPHVFQKDWQPEVKLDLDTASSQLADDVYEVVLRVTVTASLGEETAFLCEVQQGGIFSIAGIEGTQMAHCLGAYCPNILFPYARECITSMVSRGTFPQLNLAPVNFDALFMNYLQQQAGEGTEEHQDA [P0AG86]”: the “total protein half-life in vivo” value was 5.809 ± 0.028 h under setting [1]; 5.336 ± 0.019 h under setting [2]; 6.08 ± 0.59 h under setting [4]; 5.16 ± 0.59 h under setting [5]; 2.91 ± 0.79 h under setting [6]; 7.35 ± 0.53 h under setting [7]. Also, the “total protein half-life in vivo” value runs as follows: under setting [8], 11.2 ± 1.2 h; under setting [9], 5.17 ± 0.34 h; under setting [10], 9.15 h; under setting [12], 13.8 ± 2.5 h.
Consider “MSEALKILNNIRTLRAQARECTLETLEEMLEKLEVVVNERREEESAAAAEVEERTRKLQQYREMLIADGIDPNELLNSLAAVKSGTKAKRAQRPAKYSYVDENGETKTWTGQGRTPAVIKKAMDEQGKSLDDFLIKQ [P0ACF8]”, for which the “total protein half-life in vivo” value under setting [3] came out at 6.19 ± 0.062 h; the “total protein half-life in vivo” value under setting [4] was 7.64 ± 0.48 h; the “total protein half-life in vivo” value under setting [5] was determined as 5.87 ± 1.2 h; the “total protein half-life in vivo” value under setting [6] turned out to be 2.9 ± 0.29 h; the “total protein half-life in vivo” value under setting [7] amounted to 6.22 ± 0.29 h; the “total protein half-life in vivo” value under setting [8] was found to be 9.37 ± 0.21 h. Moreover, the “total protein half-life in vivo” value came to 5.27 ± 0.45 h under setting [9], 11.6 ± 2.7 h under setting [10], 5.16 ± 0.77 h under setting [11] and 11.7 ± 0.41 h under setting [12].
Turning to “MKKGTVLNSDISSVISRLGHTDTLVVCDAGLPIPKSTTRIDMALTQGVPSFMQVLGVVTNEMQVEAAIIAEEIKHHNPQLHETLLTHLEQLQKHQGNTIEIRYTTHEQFKQQTAESQAVIRSGECSPYANIILCAGVTF”, the “total protein half-life in vivo” value reads like this: under setting [1], 5.99 ± 0.1 h; under setting [2], 5.79 ± 2.1 h; under setting [3], 4.85 h; under setting [5], 4.78 ± 0.7 h; under setting [6], 3.49 ± 0.2 h; under setting [7], 6.69 ± 1.8 h. For the same sequence, the “total protein half-life in vivo” value runs as follows: under setting [8], 10.6 ± 0.4 h; under setting [9], 4.95 ± 0.51 h; under setting [10], 6.08 h; under setting [11], 6.43 ± 0.15 h; under setting [12], 13.3 ± 2.3 h.
For “MHITLRQLEVFAEVLKSGSTTQASVMLALSQSAVSAALTDLEGQLGVQLFDRVGKRLVVNEHGRLLYPRALALLEQAVEIEQLFREDNGAIRIYASSTIGNYILPAVIARYRHDYPQLPIELSVGNSQDVMQAVLDFRVDIGFIEGPCHSTEIISEPWLEDELVVFAAPTSPLARGPVTLEQLAAAPWILRERGSGTREIVDYLLLSHLPKFEMAMELGNSEAIKHAVRHGLGISCLSRRVIEDQLQAGTLSEVAVPLPRLMRTLWRIHHRQKHLSNALRRFLDYCDPANVPR [P0ACR4]”, the “total protein half-life in vivo” value is 5.84 ± 0.54 h under setting [1]; 7.58 h under setting [2]; 5.48 h under setting [3]; 5.76 ± 0.15 h under setting [4]; 6.21 h under setting [5]; 2.32 h under setting [6]. Further, the “total protein half-life in vivo” value under setting [7] turned out to be 5.78 ± 0.65 h; the “total protein half-life in vivo” value under setting [8] was 13 h; the “total protein half-life in vivo” value under setting [9] is 4.98 ± 0.021 h; the “total protein half-life in vivo” value under setting [10] came to 9.4289 ± 0.0056 h; the “total protein half-life in vivo” value under setting [11] is 5.59 ± 0.33 h; the “total protein half-life in vivo” value under setting [12] came out at 10.5 ± 1.9 h.
For “MFRQLKKNLVATLIAAMTIGQVAPAFADSADTLPDMGTSAGSTLSIGQEMQMGDYYVRQLRGSAPLINDPLLTQYINSLGMRLVSHANSVKTPFHFFLINNDEINAFAFFGGNVVLHSALFRYSDNESQLASVMAHEISHVTQRHLARAMEDQQRSAPLTWVGALGSILLAMASPQAGMAALTGTLAGTRQGMISFTQQNEQEADRIGIQVLQRSGFDPQAMPTFLEKLLDQARYSSRPPEILLTHPLPESRLADARNRANQMRPMVVQSSEDFYLAKARTLGMYNSGRNQLTSDLLDEWAKGNVRQQRAAQYGRALQAMEANKYDEARKTLQPLLAAEPGNAWYLDLATDIDLGQNKANEAINRLKNARDLRTNPVLQLNLANAYLQGGQPQEAANILNRYTFNNKDDSNGWDLLAQAEAALNNRDQELAARAEGYALAGRLDQAISLLSSASSQVKLGSLQQARYDARIDQLRQLQERFKPYTKM”, the “total protein half-life in vivo” value under setting [1] stood at 4.342 ± 0.022 h; the “total protein half-life in vivo” value under setting [2] came to 5.12 ± 1.1 h; the “total protein half-life in vivo” value under setting [3] turned out to be 4.86 ± 0.098 h; the “total protein half-life in vivo” value under setting [4] is 4.52 ± 0.32 h; the “total protein half-life in vivo” value under setting [5] turned out to be 4.35 ± 0.05 h; the “total protein half-life in vivo” value under setting [6] came out at 2.7 ± 0.2 h. The “total protein half-life in vivo” value reads like this: under setting [7], 5.08 ± 0.19 h; under setting [8], 9.19 ± 1.1 h; under setting [9], 4.73 ± 0.033 h; under setting [10], 8.19 ± 1.1 h; under setting [11], 3.46 ± 0.47 h; under setting [12], 7.12 ± 1.7 h.
As for “MRHSLPYRMLRKRPMKLSTTVILMVSAVLFSVLLVVHLIYFSQISDMTRDGLANKALAVARTLADSPEIRQGLQKKPQESGIQAIAEAVRKRNDLLFIVVTDMQSLRYSHPEAQRIGQPFKGDDILKALNGEENVAINRGFLAQALRVFTPIYDENHKQIGVVAIGLELSRVTQQINDSRWSIIWSVLFGMLVGLIGTCILVKVLKKILFGLEPYEISTLFEQRQAMLQSIKEGVVAVDDRGEVTLINDAAQELLNYRKSQDDEKLSTLSHSWSQVVDVSEVLRDGTPRRDEEITIKDRLLLINTVPVRSNGVIIGAISTFRDKTEVRKLMQRLDGLVNYADALRERSHEFMNKLHVILGLLHLKSYKQLEDYILKTANNYQEEIGSLLGKIKSPVIAGFLISKINRATDLGHTLILNSESQLPDSGSEDQVATLITTLGNLIENALEALGPEPGGEISVTLHYRHGWLHCEVNDDGPGIAPDKIDHIFDKGVSTKGSERGVGLALVKQQVENLGGSIAVESEPGIFTQFFVQIPWDGERSNR [P0AEC8]”, the “total protein half-life in vivo” value runs as follows: under setting [1], 6.93 ± 0.11 h; under setting [2], 6.33 h; under setting [3], 5.74 ± 0.12 h; under setting [4], 5.85 ± 0.23 h; under setting [5], 5.57 ± 0.62 h; under setting [6], 2.98 ± 0.12 h. Also, the “total protein half-life in vivo” value reads like this: under setting [7], 5.883 ± 0.049 h; under setting [8], 11.9 ± 0.56 h; under setting [9], 6.25 ± 0.84 h; under setting [10], 9.85 ± 3 h; under setting [11], 6.32 h; under setting [12], 11.6 ± 0.52 h.
As to “MEQPVIPVRNIYYMLTYAWGYLQEIKQANLEAIPGNNLLDILGYVLNKGVLQLSRRGLELDYNPNTEIIPGIKGRIEFAKTIRGFHLNHGKTVSTFDMLNEDTLANRIIKSTLAILIKHEKLNSTIRDEARSLYRKLPGISTLHLTPQHFSYLNGGKNTRYYKFVISVCKFIVNNSIPGQNKGHYRFYDFERNEKEMSLLYQKFLYEFCRRELTSANTTRSYLKWDASSISDQSLNLLPRMETDITIRSSEKILIVDAKYYKSIFSRRMGTEKFHSQNLYQLMNYLWSLKPENGENIGGLLIYPHVDTAVKHRYKINGFDIGLCTVNLGQEWPCIHQELLDIFDEYLK”, the “total protein half-life in vivo” value is 3.05 ± 0.89 h under setting [6]; 5.31 h under setting [7]; > 16 h under setting [8]; 5.09 ± 0.42 h under setting [11]; 7.9 ± 0.14 h under setting [12].

The record behind these values is the supplement of paper PMC11246515.
